# Results taken from patent publication US20140206607A1 (INDIANA UNIVERSITY RESEARCH AND TECHNOLOGY, published 2014).
# Numbered stars: 1 amine (or outer) side, 2 acyl side, 3 side chain; on linkers, the order of the positions; unused ones are H or OH. Square brackets hold non-standard residues; d marks the D form. Side chains are listed from the residue outwards. Ends that are not written are not given here. * marks the point of attachment. 40K‑TE PEG = 40 kDa PEG covalently bound via thioether, formed by reaction of the free thiol of the peptide (Cys side chain) with an iodoacetic-functionalized PEG; γGlu = O=C(O)[C@H](CCC(=O)[*:2])N[*:1]; Palmitoyl = CCCCCCCCCCCCCCCC(=O)*; Orn = NCCC[C@H](N)C(=O)O; Aib = CC(C)(N)C(=O)O
# T1: GIP receptor (UniProt P48546 22-466)
# T1 sequence (looked up): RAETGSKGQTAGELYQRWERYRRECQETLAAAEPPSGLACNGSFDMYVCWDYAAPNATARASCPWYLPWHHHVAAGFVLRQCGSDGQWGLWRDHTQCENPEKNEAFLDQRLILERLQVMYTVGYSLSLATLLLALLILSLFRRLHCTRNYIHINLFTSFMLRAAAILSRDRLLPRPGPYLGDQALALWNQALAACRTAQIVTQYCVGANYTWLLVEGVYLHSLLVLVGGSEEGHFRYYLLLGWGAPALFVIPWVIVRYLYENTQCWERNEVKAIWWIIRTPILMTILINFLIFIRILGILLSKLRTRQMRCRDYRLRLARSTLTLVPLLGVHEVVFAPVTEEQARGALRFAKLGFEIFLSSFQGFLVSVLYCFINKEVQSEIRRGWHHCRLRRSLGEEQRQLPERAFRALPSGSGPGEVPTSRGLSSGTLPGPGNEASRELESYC
# B1: peptide of SEQ ID NO: 37 (peptide)
# peptide: H[Aib]QGTFTSDK([γGlu-γGlu-Palmitoyl])SKYLD[Aib]RAAQDFVQWLMKTK[dE]-OH
# modifications: N-terminus assumed
# SMILES: CCCCCCCCCCCCCCCC(=O)N[C@@H](CCC(=O)N[C@@H](CCC(=O)NCCCC[C@H](NC(=O)[C@H](CC(=O)O)NC(=O)[C@H](CO)NC(=O)[C@@H](NC(=O)[C@H](Cc1ccccc1)NC(=O)[C@@H](NC(=O)CNC(=O)[C@H](CCC(N)=O)NC(=O)C(C)(C)NC(=O)[C@@H](N)Cc1c[nH]cn1)[C@@H](C)O)[C@@H](C)O)C(=O)N[C@@H](CO)C(=O)N[C@@H](CCCCN)C(=O)N[C@@H](Cc1ccc(O)cc1)C(=O)N[C@@H](CC(C)C)C(=O)N[C@@H](CC(=O)O)C(=O)NC(C)(C)C(=O)N[C@@H](CCCNC(=N)N)C(=O)N[C@@H](C)C(=O)N[C@@H](C)C(=O)N[C@@H](CCC(N)=O)C(=O)N[C@@H](CC(=O)O)C(=O)N[C@@H](Cc1ccccc1)C(=O)N[C@H](C(=O)N[C@@H](CCC(N)=O)C(=O)N[C@@H](Cc1c[nH]c2ccccc12)C(=O)N[C@@H](CC(C)C)C(=O)N[C@@H](CCSC)C(=O)N[C@@H](CCCCN)C(=O)N[C@H](C(=O)N[C@@H](CCCCN)C(=O)N[C@H](CCC(=O)O)C(=O)O)[C@@H](C)O)C(C)C)C(=O)O)C(=O)O
# B2: peptide of SEQ ID NO: 33 (peptide)
# peptide: H[Aib]QGTFTSDK([γGlu-γGlu-Palmitoyl])SKYLD[Aib]RAAQDFVQWLM[Orn]T[Orn]E-OH
# modifications: N-terminus assumed
# SMILES: CCCCCCCCCCCCCCCC(=O)N[C@@H](CCC(=O)N[C@@H](CCC(=O)NCCCC[C@H](NC(=O)[C@H](CC(=O)O)NC(=O)[C@H](CO)NC(=O)[C@@H](NC(=O)[C@H](Cc1ccccc1)NC(=O)[C@@H](NC(=O)CNC(=O)[C@H](CCC(N)=O)NC(=O)C(C)(C)NC(=O)[C@@H](N)Cc1c[nH]cn1)[C@@H](C)O)[C@@H](C)O)C(=O)N[C@@H](CO)C(=O)N[C@@H](CCCCN)C(=O)N[C@@H](Cc1ccc(O)cc1)C(=O)N[C@@H](CC(C)C)C(=O)N[C@@H](CC(=O)O)C(=O)NC(C)(C)C(=O)N[C@@H](CCCNC(=N)N)C(=O)N[C@@H](C)C(=O)N[C@@H](C)C(=O)N[C@@H](CCC(N)=O)C(=O)N[C@@H](CC(=O)O)C(=O)N[C@@H](Cc1ccccc1)C(=O)N[C@H](C(=O)N[C@@H](CCC(N)=O)C(=O)N[C@@H](Cc1c[nH]c2ccccc12)C(=O)N[C@@H](CC(C)C)C(=O)N[C@@H](CCSC)C(=O)N[C@@H](CCCN)C(=O)N[C@H](C(=O)N[C@@H](CCCN)C(=O)N[C@@H](CCC(=O)O)C(=O)O)[C@@H](C)O)C(C)C)C(=O)O)C(=O)O
# B3: peptide of SEQ ID NO: 36 (peptide)
# peptide: H[Aib]QGTFTSDK([γGlu-Palmitoyl])SKYLD[Aib]RAAQDFVQWLKDGRG-NH2
# modifications: N-terminus assumed
# SMILES: CCCCCCCCCCCCCCCC(=O)N[C@@H](CCC(=O)NCCCC[C@H](NC(=O)[C@H](CC(=O)O)NC(=O)[C@H](CO)NC(=O)[C@@H](NC(=O)[C@H](Cc1ccccc1)NC(=O)[C@@H](NC(=O)CNC(=O)[C@H](CCC(N)=O)NC(=O)C(C)(C)NC(=O)[C@@H](N)Cc1c[nH]cn1)[C@@H](C)O)[C@@H](C)O)C(=O)N[C@@H](CO)C(=O)N[C@@H](CCCCN)C(=O)N[C@@H](Cc1ccc(O)cc1)C(=O)N[C@@H](CC(C)C)C(=O)N[C@@H](CC(=O)O)C(=O)NC(C)(C)C(=O)N[C@@H](CCCNC(=N)N)C(=O)N[C@@H](C)C(=O)N[C@@H](C)C(=O)N[C@@H](CCC(N)=O)C(=O)N[C@@H](CC(=O)O)C(=O)N[C@@H](Cc1ccccc1)C(=O)N[C@H](C(=O)N[C@@H](CCC(N)=O)C(=O)N[C@@H](Cc1c[nH]c2ccccc12)C(=O)N[C@@H](CC(C)C)C(=O)N[C@@H](CCCCN)C(=O)N[C@@H](CC(=O)O)C(=O)NCC(=O)N[C@@H](CCCNC(=N)N)C(=O)NCC(N)=O)C(C)C)C(=O)O
# Target: T1, GIP receptor
# Experiment: cell-based or functional assay
row,Binder,EC50 (nM) at GIP receptor
1,B1,3.3 nM
2,B2,3.96 nM
3,H[Aib]QGTFTSDYSKYLDEKRA[Aib]EFVC(40K‑TE PEG)WLMDT-NH2 [peptide of SEQ ID NO: 15],316 nM
4,B3,0.47 nM
5,H[Aib]QGTFTSDYSKYLDERRA[Aib]EFVC(40K‑TE PEG)WLLDGGPSSGAPPPS-NH2 [peptide of SEQ ID NO: 35],16.1 nM

# Target: glucagon receptor (UniProt P47871 26-477, limits assumed)
# Experiment: cell-based or functional assay
# Sequence of glucagon receptor (P47871 26-477 limits assumed): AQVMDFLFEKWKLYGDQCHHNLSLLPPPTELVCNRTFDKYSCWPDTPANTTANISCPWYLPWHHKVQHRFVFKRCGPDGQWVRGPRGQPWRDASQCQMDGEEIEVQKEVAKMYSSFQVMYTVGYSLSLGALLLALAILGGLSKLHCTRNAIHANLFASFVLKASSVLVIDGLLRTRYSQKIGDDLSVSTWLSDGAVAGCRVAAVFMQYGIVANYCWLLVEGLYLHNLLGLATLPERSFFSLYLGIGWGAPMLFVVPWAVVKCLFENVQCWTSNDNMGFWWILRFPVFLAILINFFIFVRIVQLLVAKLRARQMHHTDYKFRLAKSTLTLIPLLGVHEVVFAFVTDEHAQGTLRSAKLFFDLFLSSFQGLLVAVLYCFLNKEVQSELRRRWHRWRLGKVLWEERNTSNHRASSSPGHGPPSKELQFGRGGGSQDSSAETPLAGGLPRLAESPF
row,Binder,EC50 (nM) at glucagon receptor
1,B1,0.018 nM
2,B2,0.023 nM
3,H[Aib]QGTFTSDYSKYLDEKRA[Aib]EFVC(40K‑TE PEG)WLMDT-NH2 [peptide of SEQ ID NO: 15],1.1 nM
4,B3,0.028 nM
5,H[Aib]QGTFTSDYSKYLDERRA[Aib]EFVC(40K‑TE PEG)WLLDGGPSSGAPPPS-NH2 [peptide of SEQ ID NO: 35],1.18 nM

# Target: GLP-1 receptor (UniProt P43220 24-463, limits assumed)
# Experiment: cell-based or functional assay
row,Binder,EC50 (nM) at GLP-1 receptor
1,B1,0.016 nM
2,B2,0.019 nM
3,H[Aib]QGTFTSDYSKYLDEKRA[Aib]EFVC(40K‑TE PEG)WLMDT-NH2 [peptide of SEQ ID NO: 15],0.071 nM
4,B3,0.003 nM
5,H[Aib]QGTFTSDYSKYLDERRA[Aib]EFVC(40K‑TE PEG)WLLDGGPSSGAPPPS-NH2 [peptide of SEQ ID NO: 35],0.085 nM
